Assay results reported in article PMC11491553, “Structural insights into the mechanotransducing mechanism of FtsEX in cell division” (MedComm, 2024).

B1: FtsE(E163Q) (enzyme, E. coli K12)
chain: IRFEHVSKAYLGGRQALQGVTFHMQPGEMAFLTGHSGAGKSTLLKLICGIERPSAGKIWFSGHDITRLKNREVPFLRRQIGMIFQDHHLLMDRTVYDNVAIPLIIAGASGDDIRRRVSAALDKVGLLDKAKNFPIQLSGGEQQRVGIARAVVNKPAVLLADQPTGNLDDALSEGILRLFEEFNRVGVTVLMATHDINLISRRSYRMLTLSDGHLHGGVGHE
notes: gene amplified from genomic DNA; The gene was amplified from genomic DNA and no truncation is mentioned; Removal of the 8×His-SUMO fusion from FtsE is not described; the complex with EnvC was recaptured on nickel; Retains endogenously captured ATP; also called NBD; FtsE of FtsE(E163Q)X; not shown: 8×His, N-terminal, kept
B2: FtsX (natural protein, E. coli K12)
chain: RFRKSVGGSGDGGRNAPKRAKSSPKPVNRKTNVFNEQVRYAFHGALQDLKSKPFATFLTVMVIAISLTLPSVCYMVYKNVNQAATQYYPSPQITVYLQKTLDDDAAAGVVAQLQAEQGVEKVNYLSREDALGEFRNWSGFGGALDMLEENPLPAVAVVIPKLDFQGTESLNTLRDRITQINGIDEVRMDDSWFARLAALTGLVGRVSAMIGVLMVAAVFLVIGNSVRLSIFARRDSINVQKLIGATDGFILRPFLYGGALLGFSGALLSLILSEILVLRLSSAVAEVAQVFGTKFDINGLSFDECLLLLLVCSMIGWVAAWLATVQHLRHFTPE
notes: FtsX, E. coli K12, integral membrane protein of FtsEX (four transmembrane helices, periplasmic loop domain); gene amplified from genomic DNA; The gene was amplified from genomic DNA and no truncation or tag on FtsX is mentioned; also called FtsX of FtsEX; TMDs and PLDs

Target: the molecule itself
Assay: cryo-EM structure; FtsE(E163Q)X with endogenously captured ATP, reconstituted into lipid nanodiscs (MSP1D1, E. coli polar extract, 1:2:200); 2.6 Å

| Protein | stoichiometry N |
| --- | --- |
| B1 | 2 |
| B2 | 2 |
